For 2 substances, stoichiometry N results are on record in PMC6391877.

Assay [1] deals with intact human C-C chemokine receptor type 5 (human) (UniProt P51681). The assay is described as follows: SEC.
Assay [2] addresses 4 domain CD4 (residues 1-388) with a C-terminal twin strep tag (human) (UniProt P01730). The assay is described as follows: SEC. Background: Size exclusion chromatography separates by hydrodynamic size, large species first.

Sequence of UniProt P51681 (P51681 whole entry, the tested form may be a part): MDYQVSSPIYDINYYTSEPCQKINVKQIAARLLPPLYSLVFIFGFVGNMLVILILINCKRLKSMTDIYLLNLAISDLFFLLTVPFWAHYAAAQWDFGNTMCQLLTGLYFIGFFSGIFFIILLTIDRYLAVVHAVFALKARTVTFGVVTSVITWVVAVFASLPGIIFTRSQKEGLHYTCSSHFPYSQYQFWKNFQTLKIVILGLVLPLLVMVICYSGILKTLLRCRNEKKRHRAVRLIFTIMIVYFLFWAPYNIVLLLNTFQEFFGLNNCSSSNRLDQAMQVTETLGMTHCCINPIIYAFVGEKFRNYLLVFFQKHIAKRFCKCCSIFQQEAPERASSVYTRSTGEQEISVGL

As usually defined, the stoichiometry N is the number of molecules, sites or subunits per partner or assembly. For “preformed CD4-gp120 complex (from UniProt P01730 26-388)”, in assay [1], the stoichiometry N turned out to be 1.
As for “HIV-1 gp120 (residues 1-507) from the isolate 92BR020 with a C-terminal 6xhistidine tag (natural protein)”, the stoichiometry N in assay [2] came to 1.
